The target in the data set is GST-Nur77 (UniProt P12813 1-601). The data set is described as follows: EMSA; not given in material (EMSA according to previously described procedures, ref 34). The conditions noted are these: protein: recombinant; tags: GST; label: 32P (alpha-32P dCTP labeling); annealed to complementary oligonucleotide. (Mobility shift assays separate free from complexed probe on a gel.)
Sequence of GST-Nur77 (P12813 whole entry): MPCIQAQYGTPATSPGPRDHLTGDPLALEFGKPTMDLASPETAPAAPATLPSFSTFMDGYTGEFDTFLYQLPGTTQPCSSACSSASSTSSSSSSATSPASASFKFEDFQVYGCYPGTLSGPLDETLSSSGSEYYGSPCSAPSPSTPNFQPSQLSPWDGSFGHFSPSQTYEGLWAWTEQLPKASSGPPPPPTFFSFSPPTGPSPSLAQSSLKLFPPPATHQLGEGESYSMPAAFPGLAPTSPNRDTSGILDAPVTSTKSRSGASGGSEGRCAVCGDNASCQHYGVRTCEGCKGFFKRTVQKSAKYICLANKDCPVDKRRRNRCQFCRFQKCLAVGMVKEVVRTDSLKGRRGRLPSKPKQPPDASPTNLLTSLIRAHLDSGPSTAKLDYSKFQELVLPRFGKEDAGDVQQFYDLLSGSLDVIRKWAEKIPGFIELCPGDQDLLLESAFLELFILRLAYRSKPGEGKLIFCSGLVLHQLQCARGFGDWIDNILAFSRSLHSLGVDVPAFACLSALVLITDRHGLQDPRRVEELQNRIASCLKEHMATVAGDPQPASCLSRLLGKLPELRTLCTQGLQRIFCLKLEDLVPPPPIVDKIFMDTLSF

B1: NBRE oligonucleotide (dsDNA)
DNA 1: GGGGCTCGTGCGAAAAGGTCAAGCGCTA
DNA 2: TAGCGCTTGACCTTTTCGCACGAGCCCC
As for B1, the binding result is “binds”.

Values taken from PMC4139307, “Transforming Growth Factor-β1 Signaling Represses Testicular Steroidogenesis through Cross-Talk with Orphan Nuclear Receptor Nur77”.
